Data as given in publication PMC5900569.

Tested on: cTSN (Tudor staphylococcal nuclease) (Caenorhabditis elegans)
Assay: filter binding
Conditions: 50 mM HEPES pH 7.0, 250 mM NaCl, 5 mM beta-mercaptoethanol, 2 mM EDTA, 30 min, room temperature, cTSN 0-2 uM
[1] = inosine (A-to-I edited, positions in Figure 3)

Row | Sequence | Kd [nM] | Kd [1] [nM]
1 | ACUGGACAAAUACUCCGAGG [ssRNA 20 nt] | 767 | –
2 | CAGUCACCCAUAAAGUAGAAAGCACUAC / GUAGUGUUUCCUACUUUAUGGAUGAGUG [pre-miR142Δloop-AtoI] | – | 68.3
3 | CAGUCACCCAUAAAGUAGAAAGCACUACUGUGGGUAGUGUUUCCUACUUUAUGGAUGAGUG [pre-miR142-AtoI] | – | 74.6
4 | CAGUCACCCAUAAAGUAGAAAGCACUAC / GUAGUGUUUCCUACUUUAUGGAUGAGUG [pre-miR142Δloop] | 236 | –
5 | CAGUCACCCAUAAAGUAGAAAGCACUACUGUGGGUAGUGUUUCCUACUUUAUGGAUGAGUG [pre-miR142] | 136 | –
6 | ACUGGACAAAUACUCCGAGG / CCUCGGAGUAUUUGUCCAGU [dsRNA 20 bp] | 393 | –
